Biological target: human Interleukin-1 Receptor Associated Kinase 1 (IRAK1) protein, nanoluciferase BiMC construct (human) (UniProt P51617)
Assay: split reporter

UniProt P51617, sequence (P51617 whole entry): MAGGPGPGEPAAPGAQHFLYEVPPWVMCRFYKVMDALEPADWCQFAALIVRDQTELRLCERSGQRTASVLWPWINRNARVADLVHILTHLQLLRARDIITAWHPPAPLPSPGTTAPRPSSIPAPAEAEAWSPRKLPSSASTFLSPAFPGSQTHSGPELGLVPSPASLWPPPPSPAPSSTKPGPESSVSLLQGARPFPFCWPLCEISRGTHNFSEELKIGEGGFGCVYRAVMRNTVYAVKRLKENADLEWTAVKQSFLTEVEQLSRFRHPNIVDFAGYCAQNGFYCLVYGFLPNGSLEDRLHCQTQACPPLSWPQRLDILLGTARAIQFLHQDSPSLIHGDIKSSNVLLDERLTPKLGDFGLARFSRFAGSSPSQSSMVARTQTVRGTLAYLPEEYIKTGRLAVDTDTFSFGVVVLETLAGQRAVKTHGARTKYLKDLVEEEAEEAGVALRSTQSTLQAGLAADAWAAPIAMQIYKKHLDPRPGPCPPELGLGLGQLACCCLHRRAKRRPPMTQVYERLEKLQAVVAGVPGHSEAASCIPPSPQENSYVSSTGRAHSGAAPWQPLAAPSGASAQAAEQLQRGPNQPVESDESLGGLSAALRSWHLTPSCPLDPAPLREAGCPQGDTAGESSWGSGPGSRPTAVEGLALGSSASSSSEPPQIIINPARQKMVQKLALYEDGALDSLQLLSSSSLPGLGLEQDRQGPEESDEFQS

Substance: SINV CP truncation mutant ΔRI (RII and Protease domains) (domain or fragment)
- fold BiMC of nanoluciferase relative to the full-length SINV CP protein: 2 fold

Reference: PMC10773654
